In patent US20250018014A1, “METHOD FOR TREATING AND/OR PREVENTING REGNASE-1-RELATED DISEASE” (OSAKA UNIVERSITY, priority 2018, published 2025):
Positions of bridges follow the written chain, without caps; N, C: chain ends. Non-standard residues stand in square brackets, D forms with d. *: point of attachment. Pyrrolidide = C1CCN(*)C1; dNMeA = CN[C@H](C)C(=O)O

B1: PP19 (peptide)
peptide: XVFYKIWYNWD
HELM: PEPTIDE1{[meA].V.F.Y.K.I.W.Y.N.W.D.[C1CCN([*:1])C1]}$PEPTIDE1,PEPTIDE1,1:R1-11:R3$$$V2.0
SMILES: CC[C@H](C)[C@@H]1NC(=O)[C@H](CCCCN)NC(=O)[C@H](Cc2ccc(O)cc2)NC(=O)[C@H](Cc2ccccc2)NC(=O)[C@H](C(C)C)NC(=O)[C@H](C)N(C)C(=O)C[C@@H](C(=O)N2CCCC2)NC(=O)[C@H](Cc2c[nH]c3ccccc23)NC(=O)[C@H](CC(N)=O)NC(=O)[C@H](Cc2ccc(O)cc2)NC(=O)[C@H](Cc2c[nH]c3ccccc23)NC1=O
B2: PP20 (peptide)
peptide: XKFWIHHSFED
HELM: PEPTIDE1{[meA].K.F.W.I.H.H.S.F.E.D.[C1CCN([*:1])C1]}$PEPTIDE1,PEPTIDE1,1:R1-11:R3$$$V2.0
SMILES: CC[C@H](C)[C@@H]1NC(=O)[C@H](Cc2c[nH]c3ccccc23)NC(=O)[C@H](Cc2ccccc2)NC(=O)[C@H](CCCCN)NC(=O)[C@H](C)N(C)C(=O)C[C@@H](C(=O)N2CCCC2)NC(=O)[C@H](CCC(=O)O)NC(=O)[C@H](Cc2ccccc2)NC(=O)[C@H](CO)NC(=O)[C@H](Cc2c[nH]cn2)NC(=O)[C@H](Cc2c[nH]cn2)NC1=O
B3: PP21 (peptide)
peptide: XNSWYKIWGLD
HELM: PEPTIDE1{[meA].N.S.W.Y.K.I.W.G.L.D.[C1CCN([*:1])C1]}$PEPTIDE1,PEPTIDE1,1:R1-11:R3$$$V2.0
SMILES: CC[C@H](C)[C@@H]1NC(=O)[C@H](CCCCN)NC(=O)[C@H](Cc2ccc(O)cc2)NC(=O)[C@H](Cc2c[nH]c3ccccc23)NC(=O)[C@H](CO)NC(=O)[C@H](CC(N)=O)NC(=O)[C@H](C)N(C)C(=O)C[C@@H](C(=O)N2CCCC2)NC(=O)[C@H](CC(C)C)NC(=O)CNC(=O)[C@H](Cc2c[nH]c3ccccc23)NC1=O
B4: PP22 (peptide)
peptide: XNSWYRIWGLD
HELM: PEPTIDE1{[meA].N.S.W.Y.R.I.W.G.L.D.[C1CCN([*:1])C1]}$PEPTIDE1,PEPTIDE1,1:R1-11:R3$$$V2.0
SMILES: CC[C@H](C)[C@@H]1NC(=O)[C@H](CCCNC(=N)N)NC(=O)[C@H](Cc2ccc(O)cc2)NC(=O)[C@H](Cc2c[nH]c3ccccc23)NC(=O)[C@H](CO)NC(=O)[C@H](CC(N)=O)NC(=O)[C@H](C)N(C)C(=O)C[C@@H](C(=O)N2CCCC2)NC(=O)[C@H](CC(C)C)NC(=O)CNC(=O)[C@H](Cc2c[nH]c3ccccc23)NC1=O
B5: PP18 (peptide)
peptide: XDIWFDYWDYD
HELM: PEPTIDE1{[meA].D.I.W.F.D.Y.W.D.Y.D.[C1CCN([*:1])C1]}$PEPTIDE1,PEPTIDE1,1:R1-11:R3$$$V2.0
SMILES: CC[C@H](C)[C@@H]1NC(=O)[C@H](CC(=O)O)NC(=O)[C@H](C)N(C)C(=O)C[C@@H](C(=O)N2CCCC2)NC(=O)[C@H](Cc2ccc(O)cc2)NC(=O)[C@H](CC(=O)O)NC(=O)[C@H](Cc2c[nH]c3ccccc23)NC(=O)[C@H](Cc2ccc(O)cc2)NC(=O)[C@H](CC(=O)O)NC(=O)[C@H](Cc2ccccc2)NC(=O)[C@H](Cc2c[nH]c3ccccc23)NC1=O
B6: PP24 (peptide)
peptide: XWIWDFWNED
HELM: PEPTIDE1{[meA].W.I.W.D.F.W.N.E.D.[C1CCN([*:1])C1]}$PEPTIDE1,PEPTIDE1,1:R1-10:R3$$$V2.0
SMILES: CC[C@H](C)[C@@H]1NC(=O)[C@H](Cc2c[nH]c3ccccc23)NC(=O)[C@H](C)N(C)C(=O)C[C@@H](C(=O)N2CCCC2)NC(=O)[C@H](CCC(=O)O)NC(=O)[C@H](CC(N)=O)NC(=O)[C@H](Cc2c[nH]c3ccccc23)NC(=O)[C@H](Cc2ccccc2)NC(=O)[C@H](CC(=O)O)NC(=O)[C@H](Cc2c[nH]c3ccccc23)NC1=O

What follows are binders tested against T1, full-length human Regnase-1 with a FLAG tag on the N-terminal side and a biotin ligase BirA recognition … (human, UniProt Q5D1E8 1-599, biotinylated at the BirA recognition sequence when required) (assay: cell-based or functional assay).
T1 sequence: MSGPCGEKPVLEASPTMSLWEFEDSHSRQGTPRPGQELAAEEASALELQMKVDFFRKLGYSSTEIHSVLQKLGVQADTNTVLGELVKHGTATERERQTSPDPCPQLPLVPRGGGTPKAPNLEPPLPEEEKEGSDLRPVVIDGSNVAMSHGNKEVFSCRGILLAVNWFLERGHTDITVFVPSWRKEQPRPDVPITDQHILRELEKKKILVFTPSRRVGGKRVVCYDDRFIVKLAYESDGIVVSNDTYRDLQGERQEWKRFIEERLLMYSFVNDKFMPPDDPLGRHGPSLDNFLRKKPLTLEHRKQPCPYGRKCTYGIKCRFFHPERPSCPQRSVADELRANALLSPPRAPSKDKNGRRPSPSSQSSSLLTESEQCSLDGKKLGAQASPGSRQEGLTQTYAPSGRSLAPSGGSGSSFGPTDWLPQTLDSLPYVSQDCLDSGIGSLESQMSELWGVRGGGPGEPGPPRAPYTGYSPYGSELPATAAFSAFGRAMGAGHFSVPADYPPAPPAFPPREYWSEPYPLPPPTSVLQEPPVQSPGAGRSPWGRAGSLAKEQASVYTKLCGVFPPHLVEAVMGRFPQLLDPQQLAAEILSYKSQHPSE

First: [dNMeA]EDTPEDDHD-Pyrrolidide (lactam N-10) [PP25]
Second: B1
The “50% inhibition concentration, Regnase-1 phosphorylation by TBK1 (AlphaScreen)” value of the first is 5.1-fold higher: 18.9 µM for the first, 3.7 µM for the second.

Going from B2 to B3, the “50% inhibition concentration, Regnase-1 phosphorylation by TBK1 (AlphaScreen)” value falls from 38.5 µM to 13.5 µM (2.9-fold).

Compared with B4, B5 is 40-fold lower in “50% inhibition concentration, Regnase-1 phosphorylation by TBK1 (AlphaScreen)” value: 24.3 µM for the first, 0.6 µM for the second.

Compared with [dNMeA]PTSSWYKIWD-Pyrrolidide (lactam N-11) [PP23], B6 is 1.9-fold higher in “50% inhibition concentration, Regnase-1 phosphorylation by TBK1 (AlphaScreen)” value: 18.8 µM for the first, 35.7 µM for the second.

What follows are binders tested against T2, C-terminal domain-deleted human Regnase-1 (amino acids 1 to 546) with N-terminal FLAG tag and C-terminal BirA … (human, UniProt Q5D1E8 1-546) (assay: cell-based or functional assay).
T2 sequence: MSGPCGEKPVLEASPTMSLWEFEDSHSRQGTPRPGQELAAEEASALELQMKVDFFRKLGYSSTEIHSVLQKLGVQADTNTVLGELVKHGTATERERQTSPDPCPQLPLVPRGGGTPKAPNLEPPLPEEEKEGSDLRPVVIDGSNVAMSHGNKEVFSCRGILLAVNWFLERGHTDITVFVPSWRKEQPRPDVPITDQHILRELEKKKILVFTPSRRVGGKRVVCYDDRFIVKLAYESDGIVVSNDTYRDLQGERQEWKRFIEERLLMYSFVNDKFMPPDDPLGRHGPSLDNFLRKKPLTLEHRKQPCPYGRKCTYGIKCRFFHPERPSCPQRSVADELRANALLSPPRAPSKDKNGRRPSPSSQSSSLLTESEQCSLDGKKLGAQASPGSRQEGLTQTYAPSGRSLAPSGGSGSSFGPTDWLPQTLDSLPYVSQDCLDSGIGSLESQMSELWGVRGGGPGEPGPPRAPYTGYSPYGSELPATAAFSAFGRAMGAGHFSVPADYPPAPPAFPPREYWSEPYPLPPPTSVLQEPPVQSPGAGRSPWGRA

Going from [dNMeA]EDTPEDDHD-Pyrrolidide (lactam N-10) [PP25] to B1, the “50% inhibition concentration, Regnase-1 phosphorylation by TBK1 (AlphaScreen)” value falls from 16.1 µM to 4.6 µM (3.5-fold).

Going from B2 to B3, the “50% inhibition concentration, Regnase-1 phosphorylation by TBK1 (AlphaScreen)” value falls from greater than 62.1 µM to 11.7 µM.

Going from B4 to B5, the “50% inhibition concentration, Regnase-1 phosphorylation by TBK1 (AlphaScreen)” value falls from 22.8 µM to 1.8 µM (13-fold).

[dNMeA]PTSSWYKIWD-Pyrrolidide (lactam N-11) [PP23] and B6 are within 1.5-fold of each other in “50% inhibition concentration, Regnase-1 phosphorylation by TBK1 (AlphaScreen)” value: 29.7 µM for the first, 27.3 µM for the second.

Each binder was assayed against T3, C-terminal human Regnase-1 (amino acids 301 to 599) with N-terminal FLAG tag and C-terminal BirA recognition … (human, UniProt Q5D1E8 301-599) (assay: cell-based or functional assay).
T3 sequence: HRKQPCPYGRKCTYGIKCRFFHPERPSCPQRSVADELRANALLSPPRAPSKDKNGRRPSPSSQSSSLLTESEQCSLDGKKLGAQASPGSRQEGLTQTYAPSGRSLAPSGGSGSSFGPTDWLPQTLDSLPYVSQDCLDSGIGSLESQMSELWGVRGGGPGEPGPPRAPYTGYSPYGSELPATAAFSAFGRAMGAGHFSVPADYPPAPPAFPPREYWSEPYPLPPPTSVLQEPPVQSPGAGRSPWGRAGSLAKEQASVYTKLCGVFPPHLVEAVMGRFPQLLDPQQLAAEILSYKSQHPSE

Going from [dNMeA]EDTPEDDHD-Pyrrolidide (lactam N-10) [PP25] to B1, the “50% inhibition concentration, Regnase-1 phosphorylation by TBK1 (AlphaScreen)” value falls from 16.3 µM to 5.8 µM (2.8-fold).

Compared with B2, B3 is lower in “50% inhibition concentration, Regnase-1 phosphorylation by TBK1 (AlphaScreen)” value: greater than 62.1 µM for the first, 17 µM for the second.

Compared with B4, B5 is 29-fold lower in “50% inhibition concentration, Regnase-1 phosphorylation by TBK1 (AlphaScreen)” value: 25.8 µM for the first, 0.9 µM for the second.

[dNMeA]PTSSWYKIWD-Pyrrolidide (lactam N-11) [PP23] and B6 are within 1.5-fold of each other in “50% inhibition concentration, Regnase-1 phosphorylation by TBK1 (AlphaScreen)” value: 30.7 µM for the first, 34.8 µM for the second.

Target: T1, full-length human Regnase-1 with a FLAG …
Experiment: cell-based or functional assay
Remark: another data set of the same source

Going from [dNMeA]EDTPEDDHD-Pyrrolidide (lactam N-10) [PP25] to B1, the “50% inhibition concentration, Regnase-1 phosphorylation by IKKβ (AlphaScreen)” value falls from 27 µM to 5.4 µM (5-fold).

B2 and B3 are within 1.5-fold of each other in “50% inhibition concentration, Regnase-1 phosphorylation by IKKβ (AlphaScreen)” value: 24.7 µM for the first, 19.6 µM for the second.

Going from B4 to B5, the “50% inhibition concentration, Regnase-1 phosphorylation by IKKβ (AlphaScreen)” value falls from 15 µM to 0.4 µM (38-fold).

Going from [dNMeA]PTSSWYKIWD-Pyrrolidide (lactam N-11) [PP23] to B6, the “50% inhibition concentration, Regnase-1 phosphorylation by IKKβ (AlphaScreen)” value falls from 25.6 µM to 5.3 µM (4.8-fold).

Target: T2, C-terminal domain-deleted human …
Experiment: cell-based or functional assay
Remark: another data set of the same source

Compared with [dNMeA]EDTPEDDHD-Pyrrolidide (lactam N-10) [PP25], B1 is 3.8-fold lower in “50% inhibition concentration, Regnase-1 phosphorylation by IKKβ (AlphaScreen)” value: 47.7 µM for the first, 12.6 µM for the second.

First: B2
Second: B3
The “50% inhibition concentration, Regnase-1 phosphorylation by IKKβ (AlphaScreen)” value of the first is higher: greater than 62.1 µM for the first, 39.3 µM for the second.

Compared with B4, B5 is 170-fold lower in “50% inhibition concentration, Regnase-1 phosphorylation by IKKβ (AlphaScreen)” value: 34 µM for the first, 0.2 µM for the second.

Going from [dNMeA]PTSSWYKIWD-Pyrrolidide (lactam N-11) [PP23] to B6, the “50% inhibition concentration, Regnase-1 phosphorylation by IKKβ (AlphaScreen)” value falls from greater than 62.1 µM to 4 µM.

Target: T3, C-terminal human Regnase-1 (amino acids …)
Experiment: cell-based or functional assay
Remark: another data set of the same source

First: [dNMeA]EDTPEDDHD-Pyrrolidide (lactam N-10) [PP25]
Second: B1
The “50% inhibition concentration, Regnase-1 phosphorylation by IKKβ (AlphaScreen)” value of the first is 2.7-fold higher: 27.6 µM for the first, 10.1 µM for the second.

Going from B2 to B3, the “50% inhibition concentration, Regnase-1 phosphorylation by IKKβ (AlphaScreen)” value falls from greater than 62.1 µM to 37.2 µM.

Going from B4 to B5, the “50% inhibition concentration, Regnase-1 phosphorylation by IKKβ (AlphaScreen)” value falls from 31 µM to 0.5 µM (62-fold).

Going from [dNMeA]PTSSWYKIWD-Pyrrolidide (lactam N-11) [PP23] to B6, the “50% inhibition concentration, Regnase-1 phosphorylation by IKKβ (AlphaScreen)” value falls from greater than 62.1 µM to 7.2 µM.
